Measurements as given in US9913914.

Biological target: Cupid B-PTEN peptide

B1: PTEN protein of Dictyostelium (protein)
chain: MSNLLRVAVSKQKRRYQKNGYDLDLAYITDNIVAMGFPSEKVEGVFRNPMKDVQRFLDQYHKDHFKVYNLCSERVYDHSKFYGRVGYYPFDDHNAPQFEMIDAFCRDVDAWMKEDSKNIAVIHCKAGKGRTGLMICCWLMYCGMWKNTEDSLRFYAALRTYNQKGVTIPSQIRYVGYFGRSIRESIKYVPRNVTLKKIVLRPLPKEINLSEVQFNISVGKNCVFNSKEHNMNVVISKKKKTVVDKNKKDPKKKLTKENSEKNIDSQQQQQSQSSLSQSQQGQSSPNMQSLSASGTISSGSNVGTVNGNTLHQLGGSQFSLSDLADGNTIGNDEYISFEIGALSLAGDIRIEFTNKQDDRMFMFWVNTSFVQQLEIIPKSGLDKAHKDKNHKAFPEDFHVELTFDQLDQQQSHTTVVASAEEQTNNQHYPQSSNNVATSSSHHDNITVVASDAPQNNNNNNNLNSSNSNNATTTTTKNNISLASSQSNPVQQESNPSTTTQVSEENSAPKVEAEKIENSNASANDSETSSNSSS
phosphorylation response of proteins to cyclic AMP (antibody detection on SDS gels): they exhibited a much stronger initial phosphorylation response to cyclic AMP
